The results in this text go back to article PMC10031210 (Protein Science : A Publication of the Protein Society, 2023).

The labels stand for the following.
B1: unfolded outer membrane protein X (uOmpX) (natural protein, E. coli, UniProt P0A917 24-171, looked up)
chain: ATSTVTGGYAQSDAQGQMNKMGGFNLKYRYEEDNSPLGVIGSFTYTEKSRTASSGDYNKNQYYGITAGPAYRINDWASIYGVVGVGYGKFQTTEYPTYKHDTSDYGFSYGAGLQFNPMENVALDFSYEQSRIRSVDVGTWIAGVGYRF
B2: FkpA (full-length, dimeric form) (natural protein, E. coli, UniProt P45523 26-270, looked up)
chain: AEAAKPATAADSKAAFKNDDQKSAYALGASLGRYMENSLKEQEKLGIKLDKDQLIAGVQDAFADKSKLSDQEIEQTLQAFEARVKSSAQAKMEKDAADNEAKGKEYREKFAKEKGVKTSSTGLVYQVVEAGKGEAPKDSDTVVVNYKGTLIDGKEFDNSYTRGEPLSFRLDGVIPGWTEGLKNIKKGGKIKLVIPPELAYGKAGVPGIPPNSTLVFDVELLDVKPAPKADAKPEADAKAADSAKK

Assay [1] has as its target B2. Kind of assay: AUC.
The target of assay [2] is B1. The assay can be described thus: cell-based or functional assay.
Assay [3] deals with unfolded β-barrel assembly machine A (uBamA) (UniProt P0A940 21-810). Kind of assay: AUC.

For B1, the binding result in assay [1] is listed as “binds”.

Take B2: the “decrease of the OmpX folding rate into diC11PC LUVs with FkpA” value in assay [2] was determined as 3 fold. Besides, the binding result in assay [3] was “binds”.
